Laboratory results taken from patent US8962819B2, “Anti-C5 alpha antibodies” (Adienne S.A., priority 2002, dated 2015).
Entries after “also recorded” stand apart in the source; their conditions may differ.

Assays:
[1] = molecular target: T1, C5 hemolytic activity in mouse serum (Mus musculus, UniProt P06684); assay: Inhibition of C5 hemolytic activity in serum; format: biochemical; conditions: FIG. 5D
T1 construct: from tissue; host or cells: mouse serum
Protocol: (§1) Measurements were performed as described in example 8, using sera from human (panel A), rat (panel B), rabbit (panel C), mouse (panel D). Since the amino acid sequence corresponding to the cleavage site of convertase on the C5 alpha chain is conserved in several animal species, it was furthermore evaluated, by hemolytic assay, the ability of TS-A12/22 antibody to inhibit conversion of C5 to C5a also in rabbit, mouse and rat sera.

[2] = test system: C5 hemolytic activity in rabbit serum; assay: Inhibition of C5 hemolytic activity in serum; format: biochemical
Protocol: as §1

[3] = molecular target: T2, C5 hemolytic activity in human serum (Homo sapiens, UniProt P01031); assay: Inhibition of C5 hemolytic activity in serum; format: biochemical; conditions: FIG. 5A
T2 construct: from tissue; host or cells: human serum
Protocol: as §1

[4] = molecular target: T3, C5 hemolytic activity in rat serum (Rattus norvegicus, UniProt P08650); assay: Inhibition of C5 hemolytic activity in serum; format: biochemical
T3 construct: from tissue; host or cells: rat serum
Protocol: as §1

[5] = molecular target: T4, C5 (Homo sapiens, UniProt P01031); assay: ELISA of C5a released after cleavage of C5 by C5 convertase; format: biochemical; conditions: FIG. 1A, classical pathway
T4 construct: C5 alpha and beta subunits were obtained by incubating 50 μg of C5; purchased Quidel
Protocol: Panel A) The ELISA assay measures the amount of C5a fragment released in the supernatant after enzymatic cleavage of C5, using antibodies anti-C5 as described in example 6. […] Sheep erythrocytes sensitised with antibodies and coated until the C3b (EAC1-3b) complement step were added to the mixture of TS-A12 or TS-A12/22 and C5, and the mixture was further incubated for 30 minutes at 37° C. (panel B).
The obtained anti-C5 scFv fragments were further characterised for their ability to inhibit the hemolytic activity of C5 or, in other words, to block conversion of the C5 component to C5a. […] At the end of this procedure, cell lysis was measured as percentage of the control of total lysis in distilled H2O (see FIG. 1, panel B). The inhibition of C5a and TCC production by the scFv TS-A12 and TS-A12/22 was measured by means of ELISA using the monoclonal antibody 17/5 as the capture antibody and antibody G25/2 as detection antibody according to what has been described in Opperman et al., 1991, Complement Inflamm. […] The presence of TCC was measured using antibody aE11 as the capture antibody and a biotinylated anti-C5 antibody (SIGMA-ALDRICH®) followed by alkaline phosphatase-conjugated streptavidin, as described by Tedesco et al. (1997, J Exp. Med. 185:1619).

[6] = molecular target: T5, factor C5 (Homo sapiens, UniProt P01031); assay: Surface plasmon resonance (BIACORE 2000) on C5 immobilized on chip; format: binding; conditions: TS-A12/22 versus TS-A12 after VL chain shuffling
T5 construct: C5 alpha and beta subunits were obtained by incubating 50 μg of C5; purchased Quidel
Protocol: The binding affinity of the Tsa-12 antibody, purified by means of FPLC on Superdex 75 (Pharmacia), for factor C5 was measured by means of BIACORE™ 2000 (a system that generates unique data on the interactions between proteins and other molecules). The microchip (CM5, Biacore) was prepared by direct conjugation of the C5 antigen with amines (20 μg/ml in 10 mM Sodium Acetate pH 4.5). The final level of immobilisation turned out to be approximately 1000 RU (Resonance Units). Association and dissociation of antibody molecules from the bio-chip were measured using an optical detection system (Surface Plasmon Resonance). The analysis was carried out at 25° C., at a flow of 15 μl/min, using 4 different scFv concentrations in the range comprised between 100-300 nM, in PBS, 0.005% P20 (Biacore). The binding curves were interpolated 1:1 according to the model of Langmuir, using the dedicated software termed BIAevaluation (version 3.5) with correction for the mass transfer. In order to increase the affinity, the TS-A12 antibody was subjected to substitution (“shuffling”) of the VL light chains. For this purpose the phagemid DNA was cut with BssHII and SaII to excise the VL region. This region was substituted with all the repertoire of VL chains of a preimmune library (Sblattero, D., and Bradbury A., 2000, Nat. Biotechnol. 18:75) that was prepared with same enzymes. […]

[7] = molecular target: C3 (Homo sapiens, UniProt P01024); assay: Specificity on other complement components; format: binding
Protocol: (§2) (The specificity of TS-A12/22 antibody was evaluated also on other components of the complement cascade, as for instance C3 and C4, which are structurally similar to C5, but cross-reactivity was not found).

[8] = test system: C4; assay: Specificity on other complement components; format: binding
Protocol: as §2

T3 sequence (P08650 679-1681 limits assumed): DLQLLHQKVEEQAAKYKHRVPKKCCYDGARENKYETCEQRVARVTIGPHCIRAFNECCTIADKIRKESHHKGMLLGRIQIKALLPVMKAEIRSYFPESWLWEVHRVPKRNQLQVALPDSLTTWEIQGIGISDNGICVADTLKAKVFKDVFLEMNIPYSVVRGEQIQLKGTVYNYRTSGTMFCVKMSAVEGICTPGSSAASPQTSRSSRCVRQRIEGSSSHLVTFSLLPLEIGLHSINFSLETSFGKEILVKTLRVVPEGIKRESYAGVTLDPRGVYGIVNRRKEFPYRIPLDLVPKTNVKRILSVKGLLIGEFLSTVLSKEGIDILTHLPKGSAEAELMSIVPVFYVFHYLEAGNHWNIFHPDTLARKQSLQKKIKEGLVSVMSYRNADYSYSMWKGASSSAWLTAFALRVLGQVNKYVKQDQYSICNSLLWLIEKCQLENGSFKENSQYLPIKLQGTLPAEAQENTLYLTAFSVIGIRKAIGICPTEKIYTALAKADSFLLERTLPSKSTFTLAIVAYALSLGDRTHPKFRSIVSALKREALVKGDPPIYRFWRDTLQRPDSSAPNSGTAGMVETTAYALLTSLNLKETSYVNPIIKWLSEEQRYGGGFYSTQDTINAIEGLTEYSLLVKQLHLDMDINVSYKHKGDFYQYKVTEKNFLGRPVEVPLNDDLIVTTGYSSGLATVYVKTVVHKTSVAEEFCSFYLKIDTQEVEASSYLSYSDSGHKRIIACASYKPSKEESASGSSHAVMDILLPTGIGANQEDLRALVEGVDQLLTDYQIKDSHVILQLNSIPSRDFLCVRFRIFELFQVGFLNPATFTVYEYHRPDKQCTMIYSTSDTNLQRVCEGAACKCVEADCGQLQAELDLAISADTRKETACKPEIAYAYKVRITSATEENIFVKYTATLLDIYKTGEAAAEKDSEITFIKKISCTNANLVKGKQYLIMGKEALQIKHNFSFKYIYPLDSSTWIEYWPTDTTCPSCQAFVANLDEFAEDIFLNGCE
T3 sequence (P08650 19-674 limits assumed): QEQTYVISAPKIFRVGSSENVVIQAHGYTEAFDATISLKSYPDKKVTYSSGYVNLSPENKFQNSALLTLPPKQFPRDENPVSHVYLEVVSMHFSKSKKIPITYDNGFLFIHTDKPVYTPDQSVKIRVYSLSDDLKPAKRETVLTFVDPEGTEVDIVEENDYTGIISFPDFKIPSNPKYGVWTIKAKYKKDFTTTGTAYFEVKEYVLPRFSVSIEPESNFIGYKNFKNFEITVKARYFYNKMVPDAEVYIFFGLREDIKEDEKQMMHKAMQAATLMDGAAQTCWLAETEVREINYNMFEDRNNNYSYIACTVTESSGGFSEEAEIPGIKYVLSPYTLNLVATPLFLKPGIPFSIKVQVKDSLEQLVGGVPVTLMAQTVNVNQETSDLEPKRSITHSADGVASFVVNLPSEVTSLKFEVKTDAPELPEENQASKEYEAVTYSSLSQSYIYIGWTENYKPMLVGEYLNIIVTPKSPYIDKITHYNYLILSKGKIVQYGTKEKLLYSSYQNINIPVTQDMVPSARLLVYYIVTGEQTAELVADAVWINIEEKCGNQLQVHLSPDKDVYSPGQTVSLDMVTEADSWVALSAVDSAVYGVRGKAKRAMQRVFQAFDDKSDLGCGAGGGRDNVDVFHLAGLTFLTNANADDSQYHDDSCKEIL
T4 sequence (P01031 678-1676 limits assumed): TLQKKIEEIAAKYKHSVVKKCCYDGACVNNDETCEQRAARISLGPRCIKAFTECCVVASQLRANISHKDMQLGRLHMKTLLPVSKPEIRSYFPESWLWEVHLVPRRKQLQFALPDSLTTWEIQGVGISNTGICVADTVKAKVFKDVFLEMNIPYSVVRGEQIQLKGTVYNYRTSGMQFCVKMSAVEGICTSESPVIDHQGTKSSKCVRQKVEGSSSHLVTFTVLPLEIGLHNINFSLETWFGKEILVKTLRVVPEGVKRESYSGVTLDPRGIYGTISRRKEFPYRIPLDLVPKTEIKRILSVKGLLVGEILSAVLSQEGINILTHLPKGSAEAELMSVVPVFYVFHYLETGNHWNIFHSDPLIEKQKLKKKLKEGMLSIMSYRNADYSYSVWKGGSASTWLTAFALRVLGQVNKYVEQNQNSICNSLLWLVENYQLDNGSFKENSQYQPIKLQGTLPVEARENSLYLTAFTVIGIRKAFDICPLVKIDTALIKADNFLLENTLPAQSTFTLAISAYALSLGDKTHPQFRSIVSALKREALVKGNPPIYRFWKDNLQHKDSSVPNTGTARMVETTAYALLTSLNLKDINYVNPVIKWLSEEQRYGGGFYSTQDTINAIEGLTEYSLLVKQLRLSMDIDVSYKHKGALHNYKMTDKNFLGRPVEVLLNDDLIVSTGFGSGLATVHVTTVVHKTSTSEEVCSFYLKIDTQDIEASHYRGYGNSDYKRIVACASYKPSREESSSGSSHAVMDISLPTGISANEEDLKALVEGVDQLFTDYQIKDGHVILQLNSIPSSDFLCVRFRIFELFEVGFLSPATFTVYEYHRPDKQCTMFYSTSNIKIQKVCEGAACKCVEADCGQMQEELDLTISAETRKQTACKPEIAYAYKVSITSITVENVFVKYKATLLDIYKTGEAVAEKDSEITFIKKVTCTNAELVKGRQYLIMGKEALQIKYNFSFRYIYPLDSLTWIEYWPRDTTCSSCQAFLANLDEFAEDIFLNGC
T4 sequence (P01031 19-673 partner limits assumed): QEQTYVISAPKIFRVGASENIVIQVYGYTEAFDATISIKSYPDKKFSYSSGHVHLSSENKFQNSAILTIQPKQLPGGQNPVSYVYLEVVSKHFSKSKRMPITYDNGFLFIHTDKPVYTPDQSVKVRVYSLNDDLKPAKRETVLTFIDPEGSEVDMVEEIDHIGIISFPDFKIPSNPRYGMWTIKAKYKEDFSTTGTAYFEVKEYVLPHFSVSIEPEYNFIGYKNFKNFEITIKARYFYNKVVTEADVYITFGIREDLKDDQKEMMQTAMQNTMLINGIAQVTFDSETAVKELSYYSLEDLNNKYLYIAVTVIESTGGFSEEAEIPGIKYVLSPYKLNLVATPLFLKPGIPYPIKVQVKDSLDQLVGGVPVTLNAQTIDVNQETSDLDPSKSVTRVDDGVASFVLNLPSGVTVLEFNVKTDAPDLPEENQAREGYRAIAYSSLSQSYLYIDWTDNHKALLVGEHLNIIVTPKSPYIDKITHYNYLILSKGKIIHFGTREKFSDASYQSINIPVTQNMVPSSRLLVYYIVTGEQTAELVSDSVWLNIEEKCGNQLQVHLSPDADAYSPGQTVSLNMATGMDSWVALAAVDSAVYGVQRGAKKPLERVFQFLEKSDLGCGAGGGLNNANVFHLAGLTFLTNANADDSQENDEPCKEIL
C3, sequence (P01024 23-1663): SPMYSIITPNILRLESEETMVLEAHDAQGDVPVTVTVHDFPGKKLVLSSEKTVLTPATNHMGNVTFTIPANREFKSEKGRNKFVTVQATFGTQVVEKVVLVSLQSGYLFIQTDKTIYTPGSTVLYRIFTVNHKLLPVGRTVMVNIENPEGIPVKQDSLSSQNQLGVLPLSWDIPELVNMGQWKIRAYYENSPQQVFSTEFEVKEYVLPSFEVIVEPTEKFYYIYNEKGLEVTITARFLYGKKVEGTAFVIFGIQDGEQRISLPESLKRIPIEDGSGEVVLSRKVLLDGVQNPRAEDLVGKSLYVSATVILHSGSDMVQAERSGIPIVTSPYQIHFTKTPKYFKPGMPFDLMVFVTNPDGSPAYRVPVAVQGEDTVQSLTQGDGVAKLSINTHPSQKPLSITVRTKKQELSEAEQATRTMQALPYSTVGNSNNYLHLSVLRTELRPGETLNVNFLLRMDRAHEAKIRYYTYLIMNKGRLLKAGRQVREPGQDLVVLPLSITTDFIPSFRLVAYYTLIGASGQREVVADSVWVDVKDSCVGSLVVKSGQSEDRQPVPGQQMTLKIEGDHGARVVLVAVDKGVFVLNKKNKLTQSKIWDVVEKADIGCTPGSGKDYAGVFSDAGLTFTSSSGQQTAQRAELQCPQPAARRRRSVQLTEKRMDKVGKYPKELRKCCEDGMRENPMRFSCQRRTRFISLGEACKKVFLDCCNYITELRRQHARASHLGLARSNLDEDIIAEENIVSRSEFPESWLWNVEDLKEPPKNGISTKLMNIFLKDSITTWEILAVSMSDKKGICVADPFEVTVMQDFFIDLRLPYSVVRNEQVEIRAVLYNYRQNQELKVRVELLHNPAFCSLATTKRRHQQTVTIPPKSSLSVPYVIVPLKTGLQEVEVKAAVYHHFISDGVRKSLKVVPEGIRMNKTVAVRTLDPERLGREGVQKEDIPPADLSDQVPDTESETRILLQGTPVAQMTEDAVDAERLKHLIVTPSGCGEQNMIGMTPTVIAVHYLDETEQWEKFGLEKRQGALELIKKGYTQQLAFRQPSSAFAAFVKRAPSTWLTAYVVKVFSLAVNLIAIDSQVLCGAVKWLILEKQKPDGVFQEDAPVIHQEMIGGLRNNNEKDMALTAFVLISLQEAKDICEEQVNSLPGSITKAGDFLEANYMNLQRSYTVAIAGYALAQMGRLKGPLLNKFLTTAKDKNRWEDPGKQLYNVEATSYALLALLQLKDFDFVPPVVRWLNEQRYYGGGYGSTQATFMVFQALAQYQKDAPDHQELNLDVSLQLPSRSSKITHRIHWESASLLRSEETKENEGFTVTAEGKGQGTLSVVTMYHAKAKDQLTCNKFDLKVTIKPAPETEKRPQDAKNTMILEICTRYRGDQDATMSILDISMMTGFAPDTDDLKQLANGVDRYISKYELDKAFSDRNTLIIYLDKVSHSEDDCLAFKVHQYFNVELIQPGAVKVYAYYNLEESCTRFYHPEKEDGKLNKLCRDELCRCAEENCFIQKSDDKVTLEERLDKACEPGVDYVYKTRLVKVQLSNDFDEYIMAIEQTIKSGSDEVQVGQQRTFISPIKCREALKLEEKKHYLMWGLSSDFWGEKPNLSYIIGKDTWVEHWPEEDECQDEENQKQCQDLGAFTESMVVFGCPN
T2 sequence (P01031 678-1676 limits assumed): as the sequence (P01031 678-1676 limits assumed) above
T2 sequence (P01031 19-673 partner limits assumed): as the sequence (P01031 19-673 partner limits assumed) above

B1: TS-A12/22: anti-C5 scFv obtained from TS-A12 by VL chain shuffling; VH3/V-48 and Vλ3/V2-14; amino acid sequence SEQ ID NO:6 (protein, listed as Homo sapiens)
scFv: DIRMTQSPDSLAVSLGERATINCKSSQSVLYSSNNKNYLAWYQQKPGQPPKLLIYWASTRESGVPDRFSGSGSGTDFTLTISSLQAEDVAVYYCQQYYSTPQLTFGGRTKVDIKSGGSTITSYNVYYTKLSSSGTQVQLQQSEGGVVQPGRSLRLSCAASGFTFSSYGMNWVRQAPGKGLEWVSYISSSSSTIYYADSVKGRFTISRDNSKNTLYLQMNSLRAEDTAVYYCARGPGMDVWGQGTTVTVSS
How did the “inhibition of hemolytic activity in serum” value (“inhibition … in serum” for short) [1] turn out when B1 was run?
Its value is “capable of inhibiting”.

And the “efficiency of inhibition compared with human serum” value [2]?
Its value is “higher”.

What about the “inhibition … in serum” value ([2]; FIG. 5C) of the same molecule?
The value was “capable of inhibiting”.

And the “inhibition … in serum” value [3]?
Its value is “capable of inhibiting”.

What about the “efficiency of inhibition compared with human serum” value [4] of the same molecule?
The value was “practically similar to that of human serum; also recorded: higher”.

What about the “inhibition … in serum” value ([4]; FIG. 5B) of the same molecule?
Its value is “capable of inhibiting”.

What about the “inhibition of formation of C5a” value [5] of the same molecule?
Its value is “inhibit almost completely”.

What about the “increment of molar affinity” value [6] of the same molecule?
Its value is “approximately one order of magnitude”.

And the “cross-reactivity with C3” value [7]?
Its value is “not found”.

What about the “cross-reactivity with C4” value [8] of the same molecule?
Its value is “not found”.
